Assay [1] has as its target T1, Recombinant Human CEACAM-5/CD66e Protein, CF (R & D SYSTEMS) (human, UniProt P06731 35-685).
T1 construct: Bought recombinant protein, immobilized on a CM5 chip by amine coupling (279 RU); also called carcinoembryonic antigen
T1 sequence (looked up): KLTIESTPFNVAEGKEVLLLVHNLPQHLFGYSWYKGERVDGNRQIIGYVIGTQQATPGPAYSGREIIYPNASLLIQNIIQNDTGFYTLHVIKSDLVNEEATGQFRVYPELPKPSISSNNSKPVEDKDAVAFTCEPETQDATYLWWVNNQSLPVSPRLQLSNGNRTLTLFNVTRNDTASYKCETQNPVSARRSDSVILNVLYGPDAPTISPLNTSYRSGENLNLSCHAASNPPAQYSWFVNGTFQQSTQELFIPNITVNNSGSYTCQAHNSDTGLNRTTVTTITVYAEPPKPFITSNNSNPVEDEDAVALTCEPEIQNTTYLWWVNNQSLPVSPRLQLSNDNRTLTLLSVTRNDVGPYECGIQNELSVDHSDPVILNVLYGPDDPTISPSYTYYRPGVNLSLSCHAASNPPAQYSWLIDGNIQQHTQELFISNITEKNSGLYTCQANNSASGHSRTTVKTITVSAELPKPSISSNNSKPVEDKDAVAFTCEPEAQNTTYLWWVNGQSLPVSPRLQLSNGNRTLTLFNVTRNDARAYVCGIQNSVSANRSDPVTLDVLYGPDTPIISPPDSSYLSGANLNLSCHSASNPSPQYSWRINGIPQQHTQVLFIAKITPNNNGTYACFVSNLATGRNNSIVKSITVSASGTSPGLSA
As to the kind of experiment: SPR, Biacore T200, CEACAM5 immobilized on CM5, CEA-V2122 as analyte, single-cycle kinetics, bivalent analysis fit (KD = kd1/ka1). As to the method:
(§1) The affinity of CEA-V2122 for the antigen CEACAM5 was evaluated using a surface plasmon resonance (SPR) measuring device, Biacore T200 (GE Healthcare Life Sciences). Specifically, Recombinant Human CEACAM-5/CD66e Protein, CF (R & D SYSTEMS) was immobilized on Sensor Chip CM5 (GE Healthcare Life Sciences) using an amine-coupling kit (GE Healthcare Life Sciences). The final amount of the ligand immobilized was 279 RU. Moreover, about the purified CEA-V2122, two-fold serial dilutions from 1E-08 M to 6.25E-10 M were prepared as analytes. Regarding interaction analysis, data were obtained by single-cycle kinetics analysis.
Background: Surface plasmon resonance follows binding to a sensor surface in real time, without labels.

In assay [2] the target is T2, Recombinant Human CEACAM-5/CD66e Protein (Homo sapiens, UniProt P06731).
T2 construct: purchased R & D SYSTEMS
T2 sequence (P06731 35-676): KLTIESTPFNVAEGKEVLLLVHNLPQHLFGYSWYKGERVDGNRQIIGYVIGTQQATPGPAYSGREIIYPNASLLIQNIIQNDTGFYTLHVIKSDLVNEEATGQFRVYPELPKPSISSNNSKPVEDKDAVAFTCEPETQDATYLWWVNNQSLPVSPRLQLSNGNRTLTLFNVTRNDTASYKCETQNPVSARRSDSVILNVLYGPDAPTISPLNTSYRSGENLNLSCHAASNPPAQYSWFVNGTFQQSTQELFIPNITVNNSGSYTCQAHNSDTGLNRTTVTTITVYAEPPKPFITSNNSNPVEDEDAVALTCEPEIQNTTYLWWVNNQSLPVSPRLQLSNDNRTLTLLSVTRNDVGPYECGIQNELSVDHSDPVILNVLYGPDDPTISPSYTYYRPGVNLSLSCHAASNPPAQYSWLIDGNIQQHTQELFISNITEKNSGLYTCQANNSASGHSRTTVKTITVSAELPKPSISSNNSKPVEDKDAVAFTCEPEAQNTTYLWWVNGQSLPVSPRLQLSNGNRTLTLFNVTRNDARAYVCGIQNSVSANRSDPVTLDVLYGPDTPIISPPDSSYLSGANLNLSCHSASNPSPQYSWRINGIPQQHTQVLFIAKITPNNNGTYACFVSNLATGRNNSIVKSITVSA
As to the kind of experiment: SPR affinity of CEA-V2122 for the antigen CEACAM5 (Biacore T200). In kind it is binding. As to the method:
as §1, with “analysis. Using Biacore T200 Evaluation Software, version 2.0, the obtained data were subjected to curve fitting in a bivalent analysis mode, and the following values were obtained: ka1=3.208E+5, and kd1=3.461E−7.” for “analysis.”

Where [3] appears, read: single-cycle kinetics, bivalent analysis mode.

B1: CEA-V2122 protein (scFv-type anti-CEACAM5 antibody fused to mutant streptavidin V2122 via the linker GGGGSGGGG) (scFv)
scFv: QVKLEQSGAEVVKPGASVKLSCKASGFNIKDSYMHWLRQGPGQRLEWIGWIDPENGDTEYAPKFQGKATFTTDTSANTAYLGLSSLRPEDTAVYYCNEGTPTGPYYFDYWGQGTLVTVSSGGGGSGGGGSGGGGSENVLTQSPSSMSVSVGDRVNIACSASSSVPYMHWLQQKPGKSPKLLIYLTSNLASGVPSRFSGSGSGTDYSLTISSVQPEDAATYYCQQRSSYPLTFGGGTKLEIKGGGGSGGGGAEAGITGTWSDQLGDTFIVTAGADGALTGTYENAVGGAESRYVLTGRYDSAPATDGSGTALGWTVAWKNNSKNAHSATTWSGQYVGGADAKINTQWLLTSGTTNANAWKSTLVGHDTFTKVKPSAASHHHHHH
notes: It was secreted and purified from the culture supernatant through the His tag and Protein L. The purified product is mainly a tetramer of about 150 kDa; also called Cupid-scFv antibody; CEA-Cupid
Regarding B1, the Kd in assay [1] came out at 1.08 pM.

B2: CEA-V2122: scFv-type anti-CEACAM5 antibody bound to mutant streptavidin V2122 via amino acid linker GGGGSGGGG (SEQ ID NO: 3) (protein)
scFv: B1 scFv
With B2, in assay [2] (bivalent analysis), the “KD=kd1/ka1” value came to 1.078E−12. Moreover, in assay [2] (setting [3]), the ka1 was determined as 3.208E+5 and the kd1 stood at 3.461E−7.

(Values after patent US20230241257A1, “BIOTIN-MODIFIED DIMER AND USE THEREOF” (THE UNIVERSITY OF TOKYO, priority 2020, published 2023).)
